# Assay results reported in paper PMC8933513 (2022).
# Assays:
# [1] = target: human aminopeptidase N (hAPN) ectodomain, residues 62-963, wild type (UniProt P15144); test: SPR; […], room temperature; […] (0.01 M HEPES, 0.15 M NaCl, 0.5% surfactant P20, 3 mM EDTA, pH 7.4); […]
# [2] = target: porcine aminopeptidase N (pAPN) ectodomain, residues 58-961, wild type (pig) (UniProt P15145); test: as above
# porcine aminopeptidase N (pAPN) ectodomain, residues 58-961, wild type (pig), sequence (P15145 58-961): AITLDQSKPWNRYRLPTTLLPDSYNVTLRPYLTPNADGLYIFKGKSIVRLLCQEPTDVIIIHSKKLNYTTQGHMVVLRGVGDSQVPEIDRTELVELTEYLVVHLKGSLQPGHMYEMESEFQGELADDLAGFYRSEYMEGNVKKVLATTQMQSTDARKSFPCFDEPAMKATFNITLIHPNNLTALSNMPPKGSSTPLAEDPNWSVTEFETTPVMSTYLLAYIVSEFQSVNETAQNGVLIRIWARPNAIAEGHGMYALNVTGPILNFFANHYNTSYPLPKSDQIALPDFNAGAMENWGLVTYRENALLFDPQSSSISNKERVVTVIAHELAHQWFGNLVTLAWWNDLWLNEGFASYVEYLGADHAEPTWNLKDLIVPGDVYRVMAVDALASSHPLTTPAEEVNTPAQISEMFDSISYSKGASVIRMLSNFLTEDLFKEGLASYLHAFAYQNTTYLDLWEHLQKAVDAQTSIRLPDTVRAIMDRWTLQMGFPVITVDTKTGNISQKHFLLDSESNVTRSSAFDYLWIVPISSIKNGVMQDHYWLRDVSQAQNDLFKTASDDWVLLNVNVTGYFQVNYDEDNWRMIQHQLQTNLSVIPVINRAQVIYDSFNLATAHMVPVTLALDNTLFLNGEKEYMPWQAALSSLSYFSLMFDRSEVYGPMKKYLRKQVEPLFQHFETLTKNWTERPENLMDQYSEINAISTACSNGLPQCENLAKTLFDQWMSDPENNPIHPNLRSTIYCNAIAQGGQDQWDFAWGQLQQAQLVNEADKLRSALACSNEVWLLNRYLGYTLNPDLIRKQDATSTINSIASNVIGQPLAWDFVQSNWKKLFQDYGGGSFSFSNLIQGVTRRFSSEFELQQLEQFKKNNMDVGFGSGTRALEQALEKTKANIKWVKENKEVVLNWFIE
# human aminopeptidase N (hAPN) ectodomain, residues 62-963, wild type, sequence (P15144 62-963): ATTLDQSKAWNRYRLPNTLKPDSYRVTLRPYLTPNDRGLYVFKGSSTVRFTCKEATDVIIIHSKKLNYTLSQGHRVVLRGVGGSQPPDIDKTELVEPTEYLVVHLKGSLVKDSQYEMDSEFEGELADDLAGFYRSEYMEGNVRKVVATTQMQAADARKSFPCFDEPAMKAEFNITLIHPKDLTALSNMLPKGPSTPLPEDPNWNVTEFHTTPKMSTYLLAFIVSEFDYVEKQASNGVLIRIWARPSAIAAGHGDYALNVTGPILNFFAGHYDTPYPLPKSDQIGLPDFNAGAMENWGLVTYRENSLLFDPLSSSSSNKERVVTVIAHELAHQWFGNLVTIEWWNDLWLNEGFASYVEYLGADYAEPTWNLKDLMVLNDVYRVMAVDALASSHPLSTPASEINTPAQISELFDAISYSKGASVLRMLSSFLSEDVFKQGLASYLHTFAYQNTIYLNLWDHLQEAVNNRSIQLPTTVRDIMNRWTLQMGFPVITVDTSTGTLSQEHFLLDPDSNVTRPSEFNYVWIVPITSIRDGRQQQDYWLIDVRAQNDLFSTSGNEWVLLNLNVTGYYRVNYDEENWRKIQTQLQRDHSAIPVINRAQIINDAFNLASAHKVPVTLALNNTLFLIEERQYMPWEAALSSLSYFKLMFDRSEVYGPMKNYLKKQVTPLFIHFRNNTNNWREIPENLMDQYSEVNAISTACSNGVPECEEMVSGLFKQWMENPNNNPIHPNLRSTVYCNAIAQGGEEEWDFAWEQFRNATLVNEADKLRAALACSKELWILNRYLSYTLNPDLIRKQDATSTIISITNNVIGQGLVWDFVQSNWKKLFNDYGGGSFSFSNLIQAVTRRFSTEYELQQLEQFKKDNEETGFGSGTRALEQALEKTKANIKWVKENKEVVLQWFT
substance,measurement,setting,value
"PDCoV RBD with mutation of residues F318, E320, R322, R357, and Y398",fold decrease in affinity against wild-type PDCoV RBD,[1],5 to 150 fold
same,fold decrease in affinity against wild-type PDCoV RBD,[2],5 to 150 fold
